The source of these data is publication PMC2683190.

By Kd is commonly meant a measure of binding affinity in units of concentration. One may read the koff as a measure of how fast the partners let go of each other. A lower koff goes with a long-lived complex. A word on the kon: it is the second-order rate constant of association.

In the test the target is GST-LIF05 (mutant human LIF, LIFR antagonist, as glutathione-S-transferase fusion protein) (human) (UniProt P15018). Kind of test: SPR. (In general: Surface plasmon resonance follows binding to a sensor surface in real time, without labels.)
Chain of GST-LIF05 (mutant human LIF, LIFR antagonist, as glutathione-S-transferase fusion protein) (human) (P15018 23-202, change not shown): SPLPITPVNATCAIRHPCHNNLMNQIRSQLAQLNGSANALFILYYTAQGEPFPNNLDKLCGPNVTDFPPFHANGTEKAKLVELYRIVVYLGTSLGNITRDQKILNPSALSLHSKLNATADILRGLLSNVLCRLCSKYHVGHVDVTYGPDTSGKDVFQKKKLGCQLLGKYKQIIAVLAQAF

B1: soluble LIFR (leukemia inhibitory factor receptor) (receptor)
chain: QKKGAPHDLKCVTNNLQVWNCSWKAPSGTGRGTDYEVCIENRSRSCYQLEKTSIKIPALSHGDYEITINSLHDFGSSTSKFTLNEQNVSLIPDTPEILNLSADFSTSTLYLKWNDRGSVFPHRSNVIWEIKVLRKESMELVKLVTHNTTLNGKDTLHHWSWASDMPLECAIHFVEIRCYIDNLHFSGLEEWSDWSPVKNISWIPDSQTKVFPQDKVILVGSDITFCCVSQEKVLSALIGHTNCPLIHLDGENVAIKIRNISVSASSGTNVVFTTEDNIFGTVIFAGYPPDTPQQLNCETHDLKEIICSWNPGRVTALVGPRATSYTLVESFSGKYVRLKRAEAPTNESYQLLFQMLPNQEIYNFTLNAHNPLGRSQSTILVNITEKVYPHTPTSFKVKDINSTAVKLSWHLPGNFAKINFLCEIEIKKSNSVQEQRNVTIKGVENSSYLVALDKLNPYTLYTFRIRCSTETFWKWSKWSNKKQHLTTEASPSKGPDTWREWSSDGKNLIIYWKPLPINEANGKILSYNVSCSSDEETQSLSEIPDPQHKAEIRLDKNDYIISVVAKNSVGSSPPSKIASMEIPNDDLKIEQVVGMGKGILLTWHYDPNMTCDYVIKWCNSSRSEPCLMDWRKVPSNSTETVIESDEFRPGIRYNFFLYGCRNQGYQLLRSMIGYIEELAPIVAPNFTVEDTSADSILVKWEDIPVEELRGFLRGYLFYFGKGERDTSKMRVLESGRSDIKVKNITDISQKTLRIADLQGKTSYHLVLRAYTDGGVGPEKSMYVVTKENS
B1 had a dissociation constant (Kd) of 4.72 nM, a koff of 0.00265 s⁻¹ and a kon of 562000 M⁻¹ s⁻¹.
